{"source": "the supplement of paper PMC10567573", "parents": {"B1": {"name": "TRIM43 (parent)", "chain": "RAQMIRNEYRKLHPVLHKEEKQHL"}}, "data": [{"variants_of": "B1", "assay": "protein stability index of a GFP-peptide fusion (GPS, HEK-293T) (PSI 1-6); higher = more stable", "conditions": "c terminus: a fixed tail appended", "values": [{"variant": "RAQMIRNEYRKLHPVLHKEEPQHL", "note": "[K21P]", "protein stability index": 2.97}, {"variant": "RAQMIRNEYRKLHPVLHKEEFQHL", "note": "[K21F]", "protein stability index": 2.58}, {"variant": "RAQMIRNEYRKLHPVLHKEEVQHL", "note": "[K21V]", "protein stability index": 3.37}, {"variant": "RAQMIRNEYRKLHPVLHKEERQHL", "note": "[K21R]", "protein stability index": 3.46}, {"variant": "RAQMIRNEYRKLHPVLHKEENQHL", "note": "[K21N]", "protein stability index": 2.77}, {"variant": "RAQMIRNEYRKLHPVLHKEEAQHL", "note": "[K21A]", "protein stability index": 2.91}, {"variant": "RAQMIRNEYRKLHPVLHKEEWQHL", "note": "[K21W]", "protein stability index": 2.51}, {"variant": "RAQMIRNEYRKLHPVLHKEEYQHL", "note": "[K21Y]", "protein stability index": 2.71}, {"variant": "RAQMIRNEYRKLHPVLHKEEEQHL", "note": "[K21E]", "protein stability index": 4.63}, {"variant": "RAQMIRNEYRKLHPVLHKEELQHL", "note": "[K21L]", "protein stability index": 2.4}, {"variant": "RAQMIRNEYRKLHPVLHKEEDQHL", "note": "[K21D]", "protein stability index": 3.82}, {"variant": "RAQMIRNEYRKLHPVLHKEEIQHL", "note": "[K21I]", "protein stability index": 2.59}, {"variant": "RAQMIRNEYRKLHPVLHKEEMQHL", "note": "[K21M]", "protein stability index": 2.54}, {"variant": "RAQMIRNEYRKLHPVLHKEECQHL", "note": "[K21C]", "protein stability index": 3.18}, {"variant": "RAQMIRNEYRKLHPVLHKEEHQHL", "note": "[K21H]", "protein stability index": 3.15}, {"variant": "RAQMIRNEYRKLHPVLHKEESQHL", "note": "[K21S]", "protein stability index": 2.81}, {"variant": "RAQMIRNEYRKLHPVLHKEEGQHL", "note": "[K21G]", "protein stability index": 2.42}, {"variant": "RAQMIRNEYRKLHPVLHKEEQQHL", "note": "[K21Q]", "protein stability index": 4.17}, {"variant": "RAQMIRNEYRKLHPVLHKEETQHL", "note": "[K21T]", "protein stability index": 2.92}, {"variant": "RAQMIRNEYRKLHPVLHKEEKQHC", "note": "[L24C]", "protein stability index": 3.65}, {"variant": "RAQMIRNEYRKLHPVLHKEEKQHM", "note": "[L24M]", "protein stability index": 3.45}, {"variant": "RAQMIRNEYRKLHPVLHKEEKQHI", "note": "[L24I]", "protein stability index": 3.19}, {"variant": "RAQMIRNEYRKLHPVLHKEEKQHD", "note": "[L24D]", "protein stability index": 4.51}, {"variant": "RAQMIRNEYRKLHPVLHKEEKQHA", "note": "[L24A]", "protein stability index": 3.59}, {"variant": "RAQMIRNEYRKLHPVLHKEEKQHV", "note": "[L24V]", "protein stability index": 3.67}, {"variant": "RAQMIRNEYRKLHPVLHKEEKQHT", "note": "[L24T]", "protein stability index": 4.01}, {"variant": "RAQMIRNEYRKLHPVLHKEEKQHG", "note": "[L24G]", "protein stability index": 3.67}, {"variant": "RAQMIRNEYRKLHPVLHKEEKQHY", "note": "[L24Y]", "protein stability index": 3.34}, {"variant": "RAQMIRNEYRKLHPVLHKEEKQHP", "note": "[L24P]", "protein stability index": 3.5}, {"variant": "RAQMIRNEYRKLHPVLHKEEKQHQ", "note": "[L24Q]", "protein stability index": 3.84}, {"variant": "RAQMIRNEYRKLHPVLHKEEKQHH", "note": "[L24H]", "protein stability index": 3.61}, {"variant": "RAQMIRNEYRKLHPVLHKEEKQHS", "note": "[L24S]", "protein stability index": 3.82}, {"variant": "RAQMIRNEYRKLHPVLHKEEKQHF", "note": "[L24F]", "protein stability index": 2.36}, {"variant": "RAQMIRNEYRKLHPVLHKEEKQHW", "note": "[L24W]", "protein stability index": 2.88}, {"variant": "RAQMIRNEYRKLHPVLHKEEKQHK", "note": "[L24K]", "protein stability index": 3.77}, {"variant": "RAQMIRNEYRKLHPVLHKEEKQHE", "note": "[L24E]", "protein stability index": 4.61}, {"variant": "RAQMIRNEYRKLHPVLHKEEKQHR", "note": "[L24R]", "protein stability index": 3.06}, {"variant": "RAQMIRNEYRKLHPVLHKEEKQHN", "note": "[L24N]", "protein stability index": 4.01}, {"variant": "RAQMIRNEYRKLHPVLHSEEKQHL", "note": "[K18S]", "protein stability index": 3.54}, {"variant": "RAQMIRNEYRKLHPVLHYEEKQHL", "note": "[K18Y]", "protein stability index": 3.09}, {"variant": "RAQMIRNEYRKLHPVLHWEEKQHL", "note": "[K18W]", "protein stability index": 2.44}, {"variant": "RAQMIRNEYRKLHPVLHREEKQHL", "note": "[K18R]", "protein stability index": 2.55}, {"variant": "RAQMIRNEYRKLHPVLHTEEKQHL", "note": "[K18T]", "protein stability index": 3.06}, {"variant": "RAQMIRNEYRKLHPVLHVEEKQHL", "note": "[K18V]", "protein stability index": 3.26}, {"variant": "RAQMIRNEYRKLHPVLHKECKQHL", "note": "[E20C]", "protein stability index": 2.57}, {"variant": "RAQMIRNEYRKLHPVLHKEMKQHL", "note": "[E20M]", "protein stability index": 2.29}, {"variant": "RAQMIRNEYRKLHPVLHKEVKQHL", "note": "[E20V]", "protein stability index": 1.97}, {"variant": "RAQMIRNEYRKLHPVLHKEAKQHL", "note": "[E20A]", "protein stability index": 2.32}, {"variant": "RAQMIRNEYRKLHPVLHKEIKQHL", "note": "[E20I]", "protein stability index": 2.42}, {"variant": "RAQMIRNEYRKLHPVLHKEQKQHL", "note": "[E20Q]", "protein stability index": 2.76}, {"variant": "RAQMIRNEYRKLHPVLHKEHKQHL", "note": "[E20H]", "protein stability index": 2.63}, {"variant": "RAQMIRNEYRKLHPVLHKEDKQHL", "note": "[E20D]", "protein stability index": 3.38}, {"variant": "RAQMIRNEYRKLHPVLHKEKKQHL", "note": "[E20K]", "protein stability index": 2.95}, {"variant": "RAQMIRNEYRKLHPVLHKERKQHL", "note": "[E20R]", "protein stability index": 1.83}, {"variant": "RAQMIRNEYRKLHPVLHKEGKQHL", "note": "[E20G]", "protein stability index": 2.29}, {"variant": "RAQMIRNEYRKLHPVLHKEPKQHL", "note": "[E20P]", "protein stability index": 2.09}, {"variant": "RAQMIRNEYRKLHPVLHKENKQHL", "note": "[E20N]", "protein stability index": 2.32}, {"variant": "RAQMIRNEYRKLHPVLHKELKQHL", "note": "[E20L]", "protein stability index": 1.83}, {"variant": "RAQMIRNEYRKLHPVLHKEFKQHL", "note": "[E20F]", "protein stability index": 1.91}, {"variant": "RAQMIRNEYRKLHPVLHKETKQHL", "note": "[E20T]", "protein stability index": 2.83}, {"variant": "RAQMIRNEYRKLHPVLHKEWKQHL", "note": "[E20W]", "protein stability index": 1.66}, {"variant": "RAQMIRNEYRKLHPVLHKESKQHL", "note": "[E20S]", "protein stability index": 2.85}, {"variant": "RAQMIRNEYRKLHPVLHKEYKQHL", "note": "[E20Y]", "protein stability index": 1.83}, {"variant": "RAQMIRNEYRKLHPVLHKWEKQHL", "note": "[E19W]", "protein stability index": 2.18}, {"variant": "RAQMIRNEYRKLHPVLHKQEKQHL", "note": "[E19Q]", "protein stability index": 3.22}, {"variant": "RAQMIRNEYRKLHPVLHKSEKQHL", "note": "[E19S]", "protein stability index": 2.92}, {"variant": "RAQMIRNEYRKLHPVLHKGEKQHL", "note": "[E19G]", "protein stability index": 2.96}, {"variant": "RAQMIRNEYRKLHPVLHKVEKQHL", "note": "[E19V]", "protein stability index": 2.25}, {"variant": "RAQMIRNEYRKLHPVLHKTEKQHL", "note": "[E19T]", "protein stability index": 2.82}, {"variant": "RAQMIRNEYRKLHPVLHKNEKQHL", "note": "[E19N]", "protein stability index": 2.42}, {"variant": "RAQMIRNEYRKLHPVLHKYEKQHL", "note": "[E19Y]", "protein stability index": 1.97}, {"variant": "RAQMIRNEYRKLHPVLHKAEKQHL", "note": "[E19A]", "protein stability index": 2.17}, {"variant": "RAQMIRNEYRKLHPVLHKFEKQHL", "note": "[E19F]", "protein stability index": 1.98}, {"variant": "RAQMIRNEYRKLHPVLHKMEKQHL", "note": "[E19M]", "protein stability index": 2.23}, {"variant": "RAQMIRNEYRKLHPVLHKCEKQHL", "note": "[E19C]", "protein stability index": 2.71}, {"variant": "RAQMIRNEYRKLHPVLHKPEKQHL", "note": "[E19P]", "protein stability index": 4.02}, {"variant": "RAQMIRNEYRKLHPVLHKLEKQHL", "note": "[E19L]", "protein stability index": 2.07}, {"variant": "RAQMIRNEYRKLHPVLHKKEKQHL", "note": "[E19K]", "protein stability index": 3.41}, {"variant": "RAQMIRNEYRKLHPVLHKREKQHL", "note": "[E19R]", "protein stability index": 2.93}, {"variant": "RAQMIRNEYRKLHPVLHKDEKQHL", "note": "[E19D]", "protein stability index": 3.02}, {"variant": "RAQMIRNEYRKLHPVLHKIEKQHL", "note": "[E19I]", "protein stability index": 1.73}, {"variant": "RAQMIRNEYRKLHPVLHKHEKQHL", "note": "[E19H]", "protein stability index": 2.34}, {"variant": "RAQMIRNEYRKLHPVLHKEEKWHL", "note": "[Q22W]", "protein stability index": 2}, {"variant": "RAQMIRNEYRKLHPVLHKEEKFHL", "note": "[Q22F]", "protein stability index": 1.86}, {"variant": "RAQMIRNEYRKLHPVLHKEEKTHL", "note": "[Q22T]", "protein stability index": 2.58}, {"variant": "RAQMIRNEYRKLHPVLHKEEKDHL", "note": "[Q22D]", "protein stability index": 3.65}, {"variant": "RAQMIRNEYRKLHPVLHKEEKLHL", "note": "[Q22L]", "protein stability index": 2.33}, {"variant": "RAQMIRNEYRKLHPVLHKEEKVHL", "note": "[Q22V]", "protein stability index": 2.64}, {"variant": "RAQMIRNEYRKLHPVLHKEEKKHL", "note": "[Q22K]", "protein stability index": 2.99}, {"variant": "RAQMIRNEYRKLHPVLHKEEKPHL", "note": "[Q22P]", "protein stability index": 3.47}, {"variant": "RAQMIRNEYRKLHPVLHKEEKYHL", "note": "[Q22Y]", "protein stability index": 2.71}, {"variant": "RAQMIRNEYRKLHPVLHKEEKRHL", "note": "[Q22R]", "protein stability index": 3.62}, {"variant": "RAQMIRNEYRKLHPVLHKEEKAHL", "note": "[Q22A]", "protein stability index": 2.89}, {"variant": "RAQMIRNEYRKLHPVLHKEEKEHL", "note": "[Q22E]", "protein stability index": 3.82}]}]}
